{"source": "paper PMC4769699", "about": "(Environmental microbiology reports, 2015)", "biological_target": "the molecule itself", "test": "native MS"}
{"protein": "AmrZ1-66 (AmrZ without the C-terminal domain) (domain or fragment) MRPLKQATPTYSSRTADKFVVRLPEGMREQIAEVARSHHRSMNSEIIARLEQSLLQEGALQDNLGV", "values": [{"measurement": "stoichiometry N", "value": 2}]}
